Results: patent US20110217317A1 (published 2011)

B1: RhD162.119G12 (Fab, V domains shown)
VH: QVQLVESGGGLVKPGGSLRLSCAASGFGFSAYSMNWVRQAPGKGLEWVSSITSTTTYYADSVKGRFSISRDNAKSTLYLRMNSLRAEDTAVYYCVREIAFRGSTYSRWSYYFDFWGQGTLVTVSS
VL: DIQLTQSPSSVSASVGDSVTITCRASQAVSGWVAWYQQKPGKAPKLLIFGLSNLEDGVPSRFSGSGSATDFTLTITGLQPEDLATYYCLQANRFPLSFGGGTRVEIKR
notes: Tested as Fab (periplasmic extract)
B2: RhD323.229B07 (Fab, V domains shown)
VH: QVQLVESGGGVVQPGRSLRLSCAASGFTFSSYGMHWVRQAPGKGLEWVAVIWYDGSNKYYADSVKGRFTISRDNSKNTLYLQMNSLRAEDTAVYYCARDWVTRSSNWYRNYYYYGMDVWGQGTTVTVSS
VL: DIQMTQSPSSLSASVGDRVTITCRASQSISSYLNWYQQKPGKAPKLLIYAASTLQSGVPSRFSGSGSGTDFTLTISSLQPEDFATYYCQQYYRTPTWTFGQGTKVEIKR
notes: as for B1
B3: RhD189.181E07 (Fab, V domains shown)
VH: QVQLVESGGGVVQPGRSLRLSCAASGFTFSSYGMHWVRQAPGKGLEWVAVIWYDGSNKYYADSVKGRFTISRDNSKNTLYLQMNSLRAEDTAVYYCARDMVTMVRGAYRNYYYYGMDVWGKGTTVTVSS
VL: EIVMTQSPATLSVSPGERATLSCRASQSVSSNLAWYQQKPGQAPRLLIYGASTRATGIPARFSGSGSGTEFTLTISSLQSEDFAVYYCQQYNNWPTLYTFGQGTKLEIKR
notes: as for B1
B4: RhD163.119A02 (Fab, V domains shown)
VH: QVQLQESGPGLVKPSETLSLTCTVSGGSISSYYWSWVRQPPGKGLEWIGYIYYSGSTNYNPSLKSRVTIALDTSKNQFSLKLRSVTAADTAVYFCTRDWRQYGSAIRGSRYYYGMDVWGQGTTVTVSS
VL: EIVLTQSPGTLSLSPGERATLSCRASQNPRRNFLAWYQQKPGQAPRLLIYAASTRATGIPDRFSGSGSGTDFTLTIDRLEPEDSAVYYCQVYGSSPLYTFGQGTKVEMKR
notes: as for B1
B5: RhD324.231F07 (Fab, V domains shown)
VH: EVQLVESGGGLVQPGRSLRLSCVASGFTFSSYWMHWVRQVPGKGLVWVSRINVDGKSTSYADSVKGRFTISRDNAKNTLYLQMNSLRAEDTAVYYCARDPRRFLEWARYGMDVWGRGTTVTVSS
VL: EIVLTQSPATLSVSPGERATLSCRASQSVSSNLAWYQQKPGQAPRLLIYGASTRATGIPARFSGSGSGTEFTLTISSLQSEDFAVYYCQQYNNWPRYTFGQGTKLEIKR
notes: as for B1

Biological target: T1, Rhesus D antigen (human, UniProt Q02161 2-417)
T1 construct: whole, on cells; Presented on RhD-positive erythrocytes in all assays; also called RhD; RhD antigen
T1 sequence (looked up): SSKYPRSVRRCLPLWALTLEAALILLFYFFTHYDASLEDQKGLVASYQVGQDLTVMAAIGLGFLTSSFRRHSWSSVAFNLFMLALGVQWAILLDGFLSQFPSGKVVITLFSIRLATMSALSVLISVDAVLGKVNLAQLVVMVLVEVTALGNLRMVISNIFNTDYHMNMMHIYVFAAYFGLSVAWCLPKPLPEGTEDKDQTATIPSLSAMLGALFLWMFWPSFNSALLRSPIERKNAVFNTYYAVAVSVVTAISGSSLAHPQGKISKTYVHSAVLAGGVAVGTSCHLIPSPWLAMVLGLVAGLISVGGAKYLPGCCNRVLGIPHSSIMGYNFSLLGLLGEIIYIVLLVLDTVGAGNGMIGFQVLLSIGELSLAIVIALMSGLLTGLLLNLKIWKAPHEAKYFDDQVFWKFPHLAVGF
Assay: Fab screening on red blood cells (agglutination/FACS)

Binding result, binds:
B1
B2
B3
B4
B5
